Data reported in the NTF2 design screens of Basanta et al. (2020).

Assay: protease stability score; higher = more stable; yeast display proteolysis, trypsin and chymotrypsin;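 also: relative to predicted unfolded state with 0 unfolded-like and 1 meaning tenfold more protease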

Row | Sequence | protease stability score
1 | SEKEHIMRRASQLIRDYLITGDWRSLEKLIDPNAQFEVNGRHIHGREEVSRIYLQHLNELGVERIDYIERDSDMQGEKVHTYGDLHVNGVTFHVIIFVLKIDGRWTIKKEIWSDK | 1.15
2 | SEKEKDSRIAIELSLKLVLTGNPEMNRELVDPHARVEVGEKEYHGRDWVRYQLELLGIDHFEIHHVDMYGEYVDVTLELRVGDKSFRLILHLEKIDGRWIVRKVHVD | 2.14
3 | SEKEKILEHFSELWYRLFRTGDEDTLHRMFDPDYRLIYGDKESHGRRLVWIMIAELRIHDWRLRRYHVQGDKAHFDVEVTGEFNGRREHNREEIIITVIDGRATEVEIRID | 0.54
4 | SEKEKLMHDIIEKYMRNLETGNEEEYAKLADPNTRLHYGNKHRVGWKEIVHTLRHWRIHIRDSEIDSIHNIDGQAFVKGKRKGEINVDGVNIDTTFDVDIIINVFDGRLKEIEIRIH | 0.068
5 | SEKEKLSKDLTRLLLEIIMTGDWKALSDNMDPEARQDIGDKHIVGREIISQFKMELDEEAGFKHSEIQRIRIIGDKIEMDVHVDQGDKHHTVHIIVIIVNGRIKHVEVRIR | 2
6 | SEKEKLYKDMFRLWAENHRTGNEKKLLEMADPNAQFIFNGREFHGRELIKEEIDEWINRIKNVRVDIHRVEIQGEKIHVITRLHINGQDLETKVELIIVDGQLHLERIHID | 0.759
7 | SEKERLVLEIYWKIIHSRNTGDEDHWEELADPDMKLTINGVEFHGREATSKFFKEHVKRFGWEFHIHVDRINAFDGRVESHVIIHIQVGDKHIEIEMREEYVVINGVLKEIRILDR | 2.1
8 | SEKERMIREMLEETMRSLKTGDEDSIHRLFDPHTRSEIDGKEYHGREEVSKWVRHARIHDFQLEDVRIQGNKAILIGVMHGRVDGRKFTTEVRIFSVKVDGQWVNENLELH | 0.993
9 | SEKETLDQHIARLWVHYWLTGDEDQLHRLADPNVRSIVDGKHVHGMERMLTELKRMRERFDHMHIEIHDIKVFDGVIHIDTTLHVQINGVHRSWESRIIIYLINGRVHSVEIRIL | 1.16
10 | SEKHEDAHRFYEQYLEALRTGDEDLLTELIDPHVKVEIGDKHYHGRDWMIEILRKRKERFPGLKIIIILRRMHIIGDKVFMDVEVRVHQGEKTETHRFEMIVNKINGRWLVDSIHIE | 2.08
11 | SEKHEEVKRALELEVQLLRTGDEDIYANLADPNTRLLFDGVDIIGMEKVMEWLRFIHEHIRIRDLKIRRVRLIDGQVDVDSQIEGHVGDKHINIKHEIVVEKINGRWYIRSRHWH | 1.52
12 | SEKHEHAHRIMEIILRAWETGDEESLRELLDPNVRFIQGDKDVVGREEMSRVLHEFREHIRLKSIHIHDKHAINGVFHLDIRIWGNVNGRDDHIEVNYTVVIVDGKIRDLEVRIH | 1.06
13 | SEKQKLAEHFAKEFIHSLETGNEEFLEHLADPDTRLEVGDKEIHGMHHLSRWLHEHLHRYKNVRWSIEITSIEVQGDKIIIHGTLHLNIDGVEIRELIVIEIDVVNGRVKSEHRDKL | 1.38
14 | SEKRQEERKMLELIEHYWQTGDFELLRELADPDTKVRIGDKERHGWEAYIEILRTLGADHMSIRDQKTVGDYVILHIDIRIGDKRYETTLVSEKFDGRWILRRSEFR | 1.16
15 | SEKTHEFQKLYHEWIRVEWTGDFHMLSHMADPNTRVELIINGRTVERIGREDMIELVRRLKHEIRFHDFDIKRVRIQGEKIYADTHEDGEINGQRRETDAKLELDVYNGKIESVFWYIE | 1.13
16 | SELDDHMRRIMDHYIEDLVTGNEDRQQKLADPNVRVIIWQGDKIYHLHGREEWVKALRELRWHEIHVRHREPVNGKTHVDTEVDGEINGRRHRHRVHLTLLVVDGKVKLVEFDHH | 1.37
17 | SELDEDFRHMVELFAFHMLTGDEHEVHRLADPHYRYEQGDKNIIGRDEWIRFLREIRIHVNSIHIRRLDYVGDKIEADVHFDVLIHVNGVRIRHRHDSHLFWEKVDGRWVLHSVRVL | 1.36
18 | SELDEDSEEAVREDIETIKTGNEEMFKRLVDPNARTDFNGKELVGREAVLHFWTMILKTMGVDHVHIEEVRIFNGRLIMHHTIHVGDKFIEVILFSEKFNGKWQIKEIEIR | 0.053
19 | SELDEEAEEALRITFEMLITGDWEFLNHYVDPDAKLNIGDKEHHGRETVITFVKEISRKLGIKVIRFRHIEVQVFNGKVDIHIHGVVEWNGRREEFRIIIILHKIDGQWHIREMRVHIR | 2.4
20 | SELDELANFANELFWELHKTGDEEIFNHYADPHMRYEIDGRDIHGMEVFTKHLRRIKNLTLHSIHVHDEKSQGEKFIFDGNVVGRVNGKEFDTRVRLELTVINGRVHSIILRRH | 1.41
